Results as given in US20130131320A1 (TOHOKU UNIVERSITY, published 2013).

Target: T1, soluble EGFR (human epithelial cell growth factor receptor 1, Her1) (human, UniProt P00533 25-645, limits assumed)
T1 construct: The metal chelate purification implies a His tag, but none is described; also called target antigen
Assay: ITC, 50 uM Fv titrated into 5 uM soluble EGFR
Procedure: (§1) The resulting mutants were then subjected to thermodynamic analysis by means of Isothermal Titration calorimeter. […] Binding enthalpy (ΔH) and binding coefficient (Ka) were calculated from the change of calorie during the above titration. Free Energy Change (ΔG) and Binding Entropy Change (ΔS) were then calculated from the above values.

Ka [M⁻¹] | TΔS [kcal/mol] | ΔG [kcal/mol] | ΔH [kcal/mol] | Binder
1.9e+07 | -4.66 | -9.92 | -14.6 | h528Fv WT (other, Fv fragment: VH and VL co-expressed in E. coli BL21; Purified by metal chelate chromatography; the tag is not described; also called wild type humanized Fv) VH: QVQLVQSGAEVKKPGASVKVSCKASGYTFTSYWMHWVRQAPGQGLEWMGNIYPGSGGTNYAEKFKNRVTMTRDTSISTAYMELSRLRSDDTAVYYCARSGGPYFFDYWGQGTLVTVSS VL: DIVMTQSPLSLPVTPGEPASISCRSSQNIVHNNGITYLEWYLQKPGQSPQLLIYKVSDRFSGVPDRFSGSGSGTDFTLKISRVEAEDVGVYYCFQGSHIPPTFGQGTKVEIKR
1.49e+08 | -9.85 | -11.2 | -21 | h528Fv 5.0.0 (other) VH: QVQLVQSGAEVKKPGASVKVSCKASGYTFTSYWMHWVRQAPGQGLEWMGNIWPGSGGTNYAEKFKNRVTMTRDTSISTAYMELSRLRSDDTAVYYCARSGGPYFFDYWGQGTLVTVSS VL: DIVMTQSPLSLPVTPGEPASISCRSSQNIVHNNGITYLEWYLQKPGQSPQLLIYKVSDRFSGVPDRFSGSGSGTDFTLKISRVEAEDVGVYYCFQGSHIPPTFGQGTKVEIKR
4.42e+08 | -4.88 | -11.8 | -16.7 | h528Fv 5.12.0 (other) VH: QVQLVQSGAEVKKPGASVKVSCKASGYTFTSYWMHWVRQAPGQGLEWMGNIWPGKGGTNYAEKFQKRVTMTRDTSISTAYMELSRLRSDDTAVYYCARSGGPYFFDYWGQGTLVTVSS VL: DIVMTQSPLSLPVTPGEPASISCRSSQNIVHNNGITYLEWYLQKPGQSPQLLIYKVSDRFSGVPDRFSGSGSGTDFTLKISRVEAEDVGVYYCFQGSHIPPTFGQGTKVEIKR
4.95e+08 | -5.14 | -11.9 | -17 | h528Fv 5.73.0 (other) VH: QVQLVQSGAEVKKPGASVKVSCKASGYTFTSYWMHWVRQAPGQGLEWMGNIWPGNGGTNYAEQFKQRVTMTRDTSISTAYMELSRLRSDDTAVYYCARSGGPYFFDYWGQGTLVTVSS VL: DIVMTQSPLSLPVTPGEPASISCRSSQNIVHNNGITYLEWYLQKPGQSPQLLIYKVSDRFSGVPDRFSGSGSGTDFTLKISRVEAEDVGVYYCFQGSHIPPTFGQGTKVEIKR
5.05e+08 | -6.43 | -11.9 | -18.4 | h528Fv 5.98.0 (other) VH: QVQLVQSGAEVKKPGASVKVSCKASGYTFTSYWMHWVRQAPGQGLEWMGNIWPGQGGTNYAEKFKSRVTMTRDTSISTAYMELSRLRSDDTAVYYCARSGGPYFFDYWGQGTLVTVSS VL: DIVMTQSPLSLPVTPGEPASISCRSSQNIVHNNGITYLEWYLQKPGQSPQLLIYKVSDRFSGVPDRFSGSGSGTDFTLKISRVEAEDVGVYYCFQGSHIPPTFGQGTKVEIKR
5.24e+08 | -8.08 | -11.9 | -20 | h528Fv 5.11.T (other) VH: QVQLVQSGAEVKKPGASVKVSCKASGYTFTSYWMHWVRQAPGQGLEWMGNIWPGTGGTNYAEKFQQRVTMTRDTSISTAYMELSRLRSDDTAVYYCTRSGGPYFFDYWGQGTLVTVSS VL: DIVMTQSPLSLPVTPGEPASISCRSSQNIVHNNGITYLEWYLQKPGQSPQLLIYKVSDRFSGVPDRFSGSGSGTDFTLKISRVEAEDVGVYYCFQGSHIPPTFGQGTKVEIKR

Target: T1, soluble EGFR (human epithelial cell …)
Assay: ITC; lower end tied to 5.0.0 by Table 4 (14.9 against 1.9)
Procedure: as §1

fold increase of Ka over h528Fv WT [fold] | Binder
8 to 33 | h528Fv 5.0.0 (other) VH: QVQLVQSGAEVKKPGASVKVSCKASGYTFTSYWMHWVRQAPGQGLEWMGNIWPGSGGTNYAEKFKNRVTMTRDTSISTAYMELSRLRSDDTAVYYCARSGGPYFFDYWGQGTLVTVSS VL: DIVMTQSPLSLPVTPGEPASISCRSSQNIVHNNGITYLEWYLQKPGQSPQLLIYKVSDRFSGVPDRFSGSGSGTDFTLKISRVEAEDVGVYYCFQGSHIPPTFGQGTKVEIKR
